The record followed here is patent CN114958811A.

The target in experiment [1] is RBD-Fc (义翘神州 40592-V05H) (SARS-CoV-2) (UniProt P0DTC2).
Experiment [2] shares this target. This is another data set of the same source.

Where two headings read alike, the source gives them in different places.

As usually defined, the IC50 is the point on the concentration scale where inhibition reaches its midpoint. The low end stands for greater potency in that assay, the high end for weaker potency in that assay. For “hACE2-Fc融合蛋白 (fusion of the human ACE2 extracellular domain with the Fc fragment of human IgG1) (Fc fusion)”, the 50% inhibitory concentration (IC50) in experiment [1] was determined as 7.6 nM; in experiment [2], 5.02 nM.
